The values that follow come from PMC6721657.

This assay concerns the target full length extracellular fragment of FGFR1-IIIc fused to the Fc (UniProt P11362). The experiment in a line: BLI; FGFR1c-Fc loaded on Protein A biosensors (20 μg/mL, 600 s); FGF1 proteins 100 to 800 nM in solution; PBS, 25 °C, 1000 rpm; global fit with the 2:1 heterogeneous ligand model and steady state analysis; three independent experiments. For orientation: Biolayer interferometry detects binding as a change in optical thickness at a sensor tip.
Sequence of UniProt P11362 (P11362 22-376): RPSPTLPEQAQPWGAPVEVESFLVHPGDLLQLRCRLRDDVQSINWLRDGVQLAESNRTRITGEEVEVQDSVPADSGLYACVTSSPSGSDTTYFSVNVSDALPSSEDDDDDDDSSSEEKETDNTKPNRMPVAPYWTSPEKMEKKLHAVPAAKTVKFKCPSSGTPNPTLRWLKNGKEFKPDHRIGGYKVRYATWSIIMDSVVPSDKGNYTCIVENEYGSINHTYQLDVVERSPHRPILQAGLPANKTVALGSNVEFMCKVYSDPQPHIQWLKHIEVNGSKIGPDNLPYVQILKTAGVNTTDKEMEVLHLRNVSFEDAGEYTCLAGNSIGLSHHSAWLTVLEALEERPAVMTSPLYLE
On to “FGF1 Q40P/S47I/H93G variant (Ala-FGF1 21-154) (ligand)”, for which the KD1 (2:1 heterogeneous ligand model) is 1.02e-07 and the KD2 (2:1 heterogeneous ligand model) stood at 1.05e-07.

Consider “FGF1 R35E mutant (Ala-FGF1 21-154) (ligand)”, for which the KD1 (2:1 heterogeneous ligand model) is 291 nM and the KD2 (2:1 heterogeneous ligand model) was found to be 152 nM.

“FGF1 R35E/Q40P/S47I/H93G mutant (Ala-FGF1 21-154) (ligand)” registered a KD1 (2:1 heterogeneous ligand model) of 477 nM and a KD2 (2:1 heterogeneous ligand model) of 690 nM.

Regarding “wild-type fibroblast growth factor 1, truncated form (Ala-FGF1 21-154) (ligand)”, the KD1 (2:1 heterogeneous ligand model) is 46.9 nM and the KD2 (2:1 heterogeneous ligand model) came to 75.6 nM.
